This series is described as follows: soluble on expression in E. coli; label from the status in PepcDB or PDB records.
In the case of “MSLRQFWFTMVKVDGTSMQPNLQNNERVVAFKTSKIKAGSVVVFNAYGLDPNQTDKNAVYVKRVIGMPGDTVRYTSSGKLYVNNKLVKQTYLKNKYQQTTGSFMANSHSKFTGWTLNSLSHDQGWAKSVTNNTVPKGYYFVLGDHRSVSNDGRYWGLVPKSKMIGVVKAWPWQNRKQYINNYQEGHHHHHH”, the “soluble on expression in E. coli” value is on record as “soluble”.

As to “MSLFIISQVFSPEGQRVLTMQFTKWFIALPLAVTALSGCSLLERLVYRIDINQGNYVDQQSVDQLKFGMSKDQVRFVLGSPMLVENGYPDTWYYIYHHTQGHNDPVQKNLIVKFNDGGKLVNVAGDFPAGDSFFEGVNEGHHHHHH”, the “soluble on expression in E. coli” value is recorded as “soluble”. In the case of “MDGHYEVSKSILINRSSPDVFAYVSHIKNQEHYSVWAKRDTNSIKTYRGRDGVVGFTATWKSEMKKVGQGEQEIKKIIPNKRIDLELRFFKPFEATDHVFMETIAQDEEETKVVWGFDGEMAYPVNFFLLFVDMEDVLGGDLETGLVNLKTILESKLEHHHHHH” it was “soluble”. As for “MDLIGLRIRNIRKIKQLTLKEAAKGIISVPYLANIENGVKVASFETLMHIAKRLEIPEEALLIGNEDLNKELLQELKQIFDLLVFSNTKEAGDRLDQIAANVDLLCESPVIELSFYWLQAGFYYKTWEFSKAREIERKYLNSNEKRVVESFPPDLLSYYYYGQAVKHSHATCDYQLAVEYWEKSIDLTDKAAFQVVFQVGLCINYICLNNYEPALKHIECAWNLIKRFPSKDQERITAILYLYGYINFQIGFMTEAKRKFEEVLVFFNMYPEAKTMYSFLVRFKLAEIERVEGNHELFDEKIVCLYEELMAHEASEIGFNNNDYLVITELMVIFAEQGSVLEASNLLAIINKVTEQVMEINFFVTYTETLLLYHQNKQSSYEKKMLDLLKKIDESNDPALIERVKKHASKHFADSTKYKMAYNILA”, the “soluble on expression in E. coli” value is listed as “not soluble”. Regarding “MSLRVKYFGTDGIRGIFGETLTDELAFKVGKALGEIVGEGKVIVGKDTRVSGDSLEAAISAGLTSMGVDVLLCGILPTPAVALLTRITRSFGVVISASHNPPEYNGIKVLKGGYKIPDEMEAEIEKRLENGSFLTRSVVGRTKSFREGRDMYIGAVLEMFRDLDLTGEMVSLDLANGATTTTAREVFEFLGAKVEVFNDSQDGLLINQGCGATHPRFLAEEMKNGKVGFTFDGDGDRVIAVDEERNVVNGDRIIGILAVGLKEEGRLNSDTVVGTVMTNGGLEDFLKEKGIRLLRTKVGDKYVLEKMLESGANLGGERSGHIIILDRSTTGDGLITALELMRVLKRSGRKLSDFAKEIPDYPQITKNVRRTERMSLENENLRKIVEESTSRGYRVVIRPSGTEPVIRITVEGKDREEIEKIVEEISRVLESEGHHHHHH”, the “soluble on expression in E. coli” value is given as “soluble”. As for “MSLRPRVLLVEDSTSLAILYKQYVKDEPYDIFHVETGRDAIQFIERSKPQLIILDLKLPDMSGEDVLDWINQNDIPTSVIIATAHGSVDLAVNLIQKGAEDFLEKPINADRLKTSVALHLKRAKLEDLVENIQSTFDRHNYHGFIGSSLPMQAVYKTIDAVAPTSASVFIVGESGTGKEVCAEAVHRQSDRRDKPFIAINCGAIPRDLMESEIFGHVKGAFTGATTDRKGAATLAHGGTLFLDELCEMELEMQKTLLRFLQTGTYTPLGGTKEMKVDVRIICATNRDPLTEVEEGRFREDLYYRVHVVPIDMPPLRERGSDIVTLAKHFLTTYAKEDKKKFSNIDTEAQHVIKHYEWPGNVRQLQNIIRNIVVLNNDEKVTVAHLPAQLTQKKTQARTVTPVHVEGHHHHHH”, the “soluble on expression in E. coli” value was “soluble”. With “MAMQIKGVIFDFDGTLLDSVELRITAWKKAFQNFGVNVPEDLIRPMIGYPGIDLAKKFVKNPLDVEMLQEDYFLKNIESAKFFQDVIPTLAELRKRGIKTAVVTSTRRIVMQKFSLQVDHVVTIDDVSKGKPDPEPYLKALKMMGIPAEECIVVGDIENDLIPAKKLRCISVLVKHGRDISSNYADYEIENIADILNVIDHLAEKNNR”, the “soluble on expression in E. coli” value is “not soluble”. The result for “FLHAIIPVHRPLRVGVLTQPVHAEISVADPMLAAVDAAASALSQAGHQLVEVQRPYGDAPFAAFSDILALRSAKIHGQASPLVSWLRDRGGRIGGRRKAKAIAEFLSVRAQLLAAWDVD” reads “not soluble”; that for “MSLLQVAPSAYRRHAARQRCPKLRSARSQRDEGLMAEIRRVWQANMQVYGVRKVWYQLQREGIAVARCTVERLMRRLGLQGVRRGKRVRTTIADGSQACSLDRVNRHFHADRPNQLWVSDFTYVSTWQGWLYVAFVIDVFARRIVGWRVSTTMSTDFVLDALEQALYDRRPAESLIHHSDRGSQYVSIRYTERLAEAGIEPSVGSRGDSYDNALAETINGLYKAELIHRRAPWKTRAAVELATLEWVAWYNHQRLLGSIGYIPPAQAEELYHRTHSETVPMNAVLEGHHHHHH”, “not soluble”; that for “MGGEQRETNLSIRGKAYIVGAFEHPLRYAPAHSVAQLHAECALGALADAGLTLADVDGYFCAGDAGASPATLVDHMNLRLRHVDGTEIGGGSYLALIGHAAQAIASGKCRVALITLAGKPRSAGQATGTEARQPGPDRPASAWEAPYRWTVAGIYGNFARRHMHEYGTTSEQLAWVKVAASHHAQHNEHALLRKVYSVEDVLASPMIADPLHRLDCCVITDGGGALVLAAPEVARSLARPRIRVLGCGETIRTNNGGHHADMLHTGAQRSGPAAFAEAGVTPADIKYASVYDNFTIMVIMQLEDLGFCEKGAGGRFVADGNLISGTGRLPWNTDGGGLCNNHPANRGGITKAIEAVRQLRGEAHPSVQVPNCDLALAAGPGLVFGVGHSHATVILERE”, “not soluble”. On to “MHAIILTMRVGIVGFGNMGQAFALCFSKKLGKENIIVTDKVQEKRNLATEMGIAFASDVKFLADNSDVVLVAVKPKDSQEVLQKLKDYKGIILSIMAGVSIEKMEKILGKDKKIVRVMPNVNVAVGSGVMAITDNGNLSEEERSKVEELLLSCGTLYRIEERLFDAFTALAGSGPAFVFSFIDALALAGVHQGFSYEQALRIALDTVMGSAKLLKEFQVNPNELIAKVTSPGGTTIEGIKYLEEKGFKGTVMECINRTSQKAKKLLEHHHHHH”, for which the “soluble on expression in E. coli” value was “not soluble”. For the sequence “MGSDKIHHHHHHMALALTLREYEFSVLLLEARELPEKVDDPRPLALSYGSRLILQRLDIWKNLTQPAPITTIHISNRGHFGHAVLTPDDAGVPALGYVVNYHDLYHSMGRAIRGSNAVYQTNALVTAIRTDLSLAQVAYQQGSTTRQVRARLLVLADGGKLAEQIDGVRYHTYDYQQTAIVANVKVESPRPGTAFERFTLNGPLALLPSGEGYALVWTMPAAAAEKILKLDDRSFLLHLHEQFGDRMGEFTHVGPRSSFPLILKHASTITGHRAVLIGNAAQALHPVAGQGFNLGLRDAWELASEISRIPSGTPGEPGSTRMLAAYSRRRQSDKRISRLFTDSLVKLFTADLPLVQTCSGMGLAALDNLPPARRLIAHQMIFGTKGWFIG”, the “soluble on expression in E. coli” value is given as “not soluble”. As to “MGSDKIHHHHHHMKISIIGAGSVRFALQLVGDIAQTEELSREDTHIYMMDVHERRLNASYILARKYVEELNSPVKIVKTSSLDEAIDGADFIINTAYPYDPRYHDSGSQRWDEVTKVGEKHGYYRGIDSQELNMVSTYTYVLSSYPDMKLALEIAEKMKKMAPKAYLMQTANPVFEITQAVRRWTGANIVGFCHGVAGVYEVFEKLDLDPEEVDWQVAGVNHGIWLNRFRYRGEDAYPLLDEWIEKKLPEWEPKNPWDTQMSPAAMDMYKFYGMLPIGDTVRNGSWKYHYNLETKKKWFGKFGGIDNEVERPKFHEQLRRARERLIKLAEEVQQNPGMKLTEEHPEIFPKGKLSGEQHIPFINAIANNKRVRLFLNVENQGTLKDFPDDVVMELPVWVDCCGIHREKVEPDLTHRIKIFYLWPRILRMEWNLEAYISRDRKVLEEILIRDPRTKSYEQIVQVLDEIFNLPFNEELRRYYKEKL”, the “soluble on expression in E. coli” value is reported as “soluble”. With “MQFGRHISGQFNVELESIRSQVLTMGGLVEQQLTLAMQALHEDDEKLARRVIADDHKVNAMEVSIDEACTRIIAKRQPTAKDLRLIMAIIKTITDLERIGDSATKMAYIAIERPPAKQHQFQVSLEPLCRQAIAMLHQVLDAFARMDVEAAAEIYKQDDRLDKEYEAVVRQLMTYMMEDPKNIPHILQVIWSARAIERVGDRCQNICEYIIYFVKGKDVRHLGDQGIDDVLKKPSL”, the “soluble on expression in E. coli” value is listed as “not soluble”.

Take “MILREFCAENLTDLTRLDKAIISRVELCDNLAVGGTTPSYGVIKEANQYLHEKGISVAVMIRPRGGNFVYNDLELRIMEEDILRAVELESDALVLGILTSNNHIDTEAIEQLLPATQGLPLVFHMAFDVIPKSDQKKSIDQLVALGFTRILLHGSSNGEPIIENIKHIKALVEYANNRIEIMVGGGVTAENYQYICQETGVKQAHGTRITQMAGDPLEHHHHHH”: the “soluble on expression in E. coli” value is recorded as “soluble”. Regarding “MSLLFYVAYLGFYIAPTKLVRNKIKSWLLNASEYDFTDIKEGIRLHLNESPFEPPQFIIDAVKMYLSKGNRYQHPDLLEKYRELAAEYSKVEPENIYPSVGADGSIRAIFYNLVEPGDTILTNYPSYSMYSVYSSVRGTKVIKVNLKEDNEWWKENTDDLLAQAEKVELVIIDDPNNPTGSPMLNGKKELIGQLAENTKGFVVIDEAYYEFGGYTVSPYIYDYPNVLVVRTLSKAFSLASYRLGYTIANEEIVKALMKSSTPFDIPLPSLIAGITALENPSYIKDVVNIVNRNREILYQGLKNLNLKVYKSITNFLLIKDNRNLQEMLMRHGIAIRKLYDNFYRITIGTEDQCKMVIDKLGEELENSNSEGHHHHHH”, the “soluble on expression in E. coli” value is reported as “not soluble”. For the sequence “MAHHHHHHMTTTASPQTGSSPTVPTPVAPPSIDEALSYWIGLSRLIHRVCVTSDSTPSADEGEPSTFTRYALHCVLLCCGIKQHRVRQTADHMLAQLLSAAYTTAAALTGPVVLLDSESPASTPFRSPVRQLPVPLPVLVADWLKQSSADDQKASQHNRYCLRVPAVTWTRSIIKWLGSELRGQMISLRPLSRWNMVCAQQSGRMPVVIFVGGASGAGKSTLASLVASQLRVPNVLSTDTVRQVLRARLCGHEAQFPALFVSTYEAHKVTADDSHASADDGSAVPHAQSADENAIVQGYEAQCELVLRVLDGMLARLLARRESIVVEGVHLLPRYLAAKRAELLVSRVACVPVLVRIPKADSHLERLCIRARGMSMRAQNNKYIASFKAIRAIQAHLVDSVEAASLPVLVLSNTNMDKSFTALHHTLLETMEYAAVHGWPADAAAAADVPLTGLVFRAVKDRLVAVVRQRRWRRSATNDNISTSSGTGASAPGDEEKGGVATGPFSALVLAPHARPPVHSPAGSSNGAAPRARSAELLGVVQRCLLEQGLRYHSRTSNAQVDAATVYGSSGVLGARDASSRFHAHVVIRRSFTIAAKSHISMTASSHLPLDNHNEEFDELEIPSLIGS”, the “soluble on expression in E. coli” value is “not soluble”.

The values above are taken from the DeepSol protein solubility set.
